The target in assay [1] is T1, fHbp of N. meningitidis strain MC58 (full-length mature factor H binding protein) (Neisseria meningitidis strain MC58, UniProt E6MV22 20-274).
T1 construct: also called MC58 fHbp; protein 741
T1 sequence: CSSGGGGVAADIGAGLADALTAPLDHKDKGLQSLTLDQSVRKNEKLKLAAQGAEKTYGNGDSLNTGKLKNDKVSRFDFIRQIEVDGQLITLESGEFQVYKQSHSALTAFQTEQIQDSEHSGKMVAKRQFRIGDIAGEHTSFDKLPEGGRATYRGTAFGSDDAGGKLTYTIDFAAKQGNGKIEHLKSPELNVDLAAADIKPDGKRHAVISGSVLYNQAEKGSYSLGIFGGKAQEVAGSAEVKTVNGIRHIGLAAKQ
In words: western blot on cell extracts; FACS on bacteria.

For assay [2], the target named is T2, recombinant fHbp from MC58 with Arg204 changed to histidine (Neisseria meningitidis strain MC58, UniProt E6MV22 27-274).
T2 construct: also called Arg204→His mutant
T2 sequence: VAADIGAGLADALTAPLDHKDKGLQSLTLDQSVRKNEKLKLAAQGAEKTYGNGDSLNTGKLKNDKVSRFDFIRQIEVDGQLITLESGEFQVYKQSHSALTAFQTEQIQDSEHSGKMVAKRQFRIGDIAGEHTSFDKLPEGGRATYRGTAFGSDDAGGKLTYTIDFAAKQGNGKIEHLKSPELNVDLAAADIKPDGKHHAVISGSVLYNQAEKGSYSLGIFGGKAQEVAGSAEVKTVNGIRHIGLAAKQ
The assay is described as follows: western blot of site-directed mutant of recombinant MC58 fHbp. (In western blotting, separated proteins are transferred to a membrane and probed.)

B1: MAb502 (antibody, V domains shown)
VH: EVQLQESGPGLAKPSQTLSLTCSVTGYSITSDFWNWIRKFPGNKLEYMGYISYSGSTDYNPSLKSRISITRDTSKNQYYLQLNSVTAEDTATYYCARYFGSSYAMDHWGQGTSVTVSS
VL: DIQMTQSPASLSASVGETVTITCRASGNIHNYLAWYQQKQGKSPQLLVYTAKTLAEGVPSRFSGSGSGTQFSLKINSLQPEDFGSYYCQHFWSTPWTFGGGTKLEIKR
notes: also called monoclonal anti-fHbp antibody MAb502
B1: the binding result is reported as “binds” in assay [1] and “no binding” in assay [2].

Source of the values: patent US20100105875A1 (published 2010).
